Data published in the nanobody polyreactivity screen of Harvey et al. (2022).

Test: yeast display, Sf9 membrane polyspecificity reagent, FACS + sequencing; frameworks hold sequencing errors
How it was run: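 A synthetic nanobody library was expressed on Saccharomyces cerevisiae BJ5465 by galactose induction for 36–48 hours. The library was stained for 1 hour at 4 °C with 10% biotinylated, detergent-solubilized Sf9 membrane reagent and enriched with streptavidin microbeads before FACS. Low and high (top ~1%) gates were set on anti-HA fluorescence for expression and streptavidin fluorescence for reagent binding, and each polyreactivity label reflects the gate of origin.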

Sequence | polyreactivity (PSR sort gate)
QVQIVESGGGLVQAGGSLRLSCAASGSIFLRNAMGWYRQAPGKERELVASITWNGASTSYADSVKGRFTISRDNAKNTVYLQMNSLKPEDTAVYYCAAVTVQDSNLNYGYWGQGTQVTVSS | low polyreactivity
QVQIVESGGGLVQAGGSLRLSCAASGSIFSRYTMGWYRQAPGKERELVARINSSGTSTYYADSVKGRFTISRDNEKNSVYFQMNSLKPEDTAVYYCDRTSRHVRYDYWGQGTQVTVSS | low polyreactivity
QVQIVESGGGLVQAGGSLRLSCAASGSIFSYNVMGWYRQAPGKERELVAAISWNDGSTYYADSVKGRFTISRDNAKNTVYLQMNSLKPEDTAVYYCAAEYGRRWHNELDYWGQGTQVTLSS | low polyreactivity
QVQIVESGGGLVQAGGSLRLSCAASGSNNGYYTMGWYRQAPRKERELVAAINYSGGRTYYADSVKGRFTISRDNAKNTVYFQMNSLKPEDTAVYYCARAYYYGSDIMDYWGQGTQVTVSS | high polyreactivity
QVQIVESGGGLVQAGGSLRLSCAASGSTFLTNTMGWYRQAPGKERELVAAITLRGGRTYYADSVKGRFTISRDNAKNTVYLQMNSLRPEDTAVYYCNARNYYYPSDRDYWGQGTQVTVSS | low polyreactivity
QVQIVESGGGLVQAGGSLRLSCAASGSTFTLNAMGWYRQAPGKERELVADISWSSGRTYYADSVKGRFTISRDNAKNTVYLQMNSLKPEDTAVYYCAARLPFEHVDYWGQGTQVTVSS | low polyreactivity
QVQIVESGGGLVQAGGSLRLSCAASGSTFVENAMGWYRPAPGKERELVAAISSSGDSTFYADSVKGRFTISRDNAKNNVYLQMNSLKPEDTAVYYCAADRRINYDGLDMDYWGQGTQVTVSS | low polyreactivity
QVQIVESGGGLVQAGGSLRLSCAASGSTFYSYAMGWYRPAPGKERELVAGISYIGGRTYYADSVKGRFTISRDNAKNTVYLQMNSLKAEDTAVYDCAADQYGTTYGYWGHGTQVTVSS | high polyreactivity
QVQIVESGGGLVQAGGSLRLSCAASGSTFYSYAMGWYRQAPGKERELVAAIDWSGDNTNYADSVKGRFTISRDNAKNTVYLQMKSLKPEDTAVYYCAAVYSYYRLYAYPAYYYWGQGTQVTVSS | low polyreactivity
QVQIVESGGGLVQAGGSLRLSCAASGSTLGVNAMGWYRQAPGKERELVAAISKSGGGTYYADSVKGRFTISRDIAKNTVYLQMNRLIPEDTAVYYCNAPVSRKYYSWGQGTQVTVSS | high polyreactivity
QVQIVESGGGLVQAGGSLRLSCAASGSTLYAYAMGWYRQAPGKERELVAAIRTGGSTYYADSVKGRFTISRDNAKNTVYLQMNSLKPEDTAVYYCADDHGYQYGYWGQATQVTVSS | low polyreactivity
QVQIVESGGGLVQAGGSLRLSCAASGSTSLVNAMGWYRQAPGKESELVAAITRGGNTYYADSVKGRFTISRDNAKNTVYLQMNSLKPEDTAVYYCAADFWRFYYEYDYWGQGTQVTVSS | low polyreactivity
QVQIVESGGGLVQAGGSLRLSCAASGYTFRFNAMGWYRQAPGKEREFVAAIDFGGAGTYYADSVKGRFTISRDNAKNTVYLQMNSLKPEDTAVYYCNARDGVTTEFDYWGQGTQVTVSS | low polyreactivity
QVQIVESGGGLVQAGGSLRLSCAASRRIFEYYTMGWYRQAPGKERELVARISSGGSTYYADTVKGRFTISRDNAKNSVYLQLNSLLPEDTAVYYCAAGRGYWWWYGYDYWGQGTEVTVSS | low polyreactivity
QVQIVESGGGLVQAGGSLRLSCDASGSIFYSNAIGWYRQAPGKERELVASIRGSGVSTYYADSVKGRFTISRDNAKNTVYLQMNSLKPEDTAVYYCAARYVRSYFGFYYWGQGTQVTVSS | high polyreactivity
QVQIVESGGGLVQAGGSLRLSFAASGSILYINAMGWYRQAPGKERELVAAISWSGDSTNYADSVKGRFTISRDNAKNTVYLQMNSLKPEDTAVYYCNADCDVVGVAHDYWGQGTQVTVSS | low polyreactivity
QVQIVESGGGLVQAGGSLRLTCAASGRTFYGNAMGWYRQAPGKERDLVADISSRSSSTSYADSVKGRFTISRDNAKYSVYFQMNSLKPEDTAVYYCATRYGYRTWYGYNYWGQGTQVTVSS | high polyreactivity
QVQIVESGGGLVQAGGSLRLTCAASGSIFPDYAMGWYRQAPGKERELVASISWDGGSTYYADSVKGRFTISRDNAKNTVYLQMNSLKPEDTAVYYCATELLVGGGFTVDYWGQGTQVTVSS | low polyreactivity
QVQIVESGGGLVQAGGSLRVSCAASGRTFSWYAMGWYRQARGKEWEIVAAIRWSGSSTYYADSVKGRFTISRDNAKNTVYLQMNSLKPEDTAVYYCAVAAGIPQRRYYYWGQGTQVTVSS | high polyreactivity
QVQIVESGGGLVQAGGSLRVSCAPSGNISYSYDMGWYRQAPGKERELVASITESGGSTYYADSVKGRFTISRDNAKNTVYFQMNILKPEDTAVYYCYWGHGTQVTVSS | low polyreactivity
QVQIVESGGGLVQAGGSLSLICAASGFIIDDNTMGWYRQAPGKERELVAAISYSAGSTYYADSVKGRFTISRDNAKNTVFLQMISVKTEDTAVYYCAAQHYWVTSYLSSYDYWGQGTQVTVSS | low polyreactivity
QVQIVESGGGLVQAGGSLSLSCAASGRTFVLYVMGWYRQAPWKEREFVADINAGGGSTYYADSVKGRFTISRDNAKNTVYLQMNSLKPEDTAVYYCAATRDLGQLFRFGYWGQGTQVTVSS | low polyreactivity

Sequence | polyreactivity (PSR sort gate)
QVQIVESGGGLVQARCSLRLSFSASGYTFNNYAKGWYRQAPGTERELVAAISSSGGSTYFADSVKGRFTISRDNAKNTVYVQMNSLKPEDTAVYYCAARPFGLGDYRGYYYWGQGTQVTVSS | low polyreactivity
QVQIVESGGGLVQEGGSLRLRCAASGFTFGYYRMGWYRQAPGKERELVAAISRSAGSTYYADSVKGRFTISRDNAKNTVYLQMNSLKPEDTAVYYCNAAVFRTEGGYSTFNYWGQGSQVTVSS | high polyreactivity
QVQIVESGGGVVQAGGILRLSCAASGYTFTVYGMGWYRQAPGKERELVARITWSGGTTRYADSVKGRFTISRDNAKNNVYLQMNSLKPEDTAVYYCAASYWRPKRYRYDYWGQGTQVTVSS | high polyreactivity
QVQIVESGGRLVQAGCSLRLSCAASGSTFKINAMGWYRQAPGKEWELVAVIRSRGTSTYYADSVKGRFTISRDNSKNTVYLQMNSLKPVDTAVYNCAAGRINGGDYWGQGTQVTVSS | high polyreactivity
QVQIVESGGVIVQAGGSLRLSCAASGRIISYYTMGWYRQAPGKERELVAAISVSSGRTYYADSVKGRFTISRDNAKNTVYLQMNSLKPEDTAVYYCDAKYLARSAYDYWGQGTQVTVSS | high polyreactivity
QVQIVESGPGLVQAGASLSLSCAASGSIFRPYAMGWYIQAPGKDRELVAAITWSGGRTYYADSVKGRFTISRDNAKNTVYLKMNSLKREDTAVYYCAADDSEGFDYWGQGNQVTVSS | high polyreactivity
QVQIVESGRGLVQAGGSLRLSCAPSGFTLGFFAMGWYRQAPGKERELVAAINWRGGSTYYADSVKVRFTISRDNAKNTVYLQMNSLKPEDTAVYYCNRVYRPSRYDYWGQGTQVTVSS | high polyreactivity
QVQIVESGVGLVQAGGSLRLSCAASGTIFARYAMGWYRQAPGKERELVAAISWRGGRTYYADSVKGRFTISRDNAKNTVYLQMNSLKPEVTAVYYCAARRQQRGANGGDYWGQGTQVTLSS | high polyreactivity
QVQIVESWGCLVQAGGSLRLSCAASVNIFNVNAMGWSRQAPRKEREFLAAITSGANSYYADSEKGRFTISRDNAKNSVFLQMNSLKPEDTAVYYCAAEDGSYYRRNRFYYWGQGTQVTVSS | high polyreactivity
QVQIVKSGGGLVQAGGSLRLSCAASGFIIPEYTMGWYRQAPGKERELVAAISGSGGSTYYADSVKGRFTISRDNAKNTVYLQMNSLIPEDTAVYYCIAPVYTADGYRYGSVRFGYWGQGTQVTVSS | low polyreactivity
QVQLAESGGCLVQAGGRLRLSCAASGSTFPHYAMGWYRQAPGKERELVAAISVRGGRTYYADSVKGRFTISRDNAKNNDSLQMNSLKPEDTAVYYCNKYYDVTKYGYWGQGTQVTVSS | high polyreactivity
QVQLAESGGGLVQAGGSLRLSCAASGIIFYFYAMGWYRQAPGKERELVAAINSSSGRTYYADSVKGRFTISRDNAKNSVYLQMNSLKPEDTAVYYCAAYYYGSYDGTPYDYWGQGTQVTVSS | low polyreactivity
QVQLAESGGGLVQAGGSLRLSCAASGIIFYFYAMGWYRQAPGKERELVAAISGTGGRTYYADSVKGRFTISRDNAKNTVYLQMNSLKPEDTAVYYCNADDTPVPSIRFDYWGQGTQVTVSS | low polyreactivity
QVQLAESGGGLVQAGGSLRLSCAASGSTFVAYAMGWYRQAPGKERELVAAITRSGGSTYYADSVKGRFTISRDNAKNTVYLQMNSLKPEDTAVYYCAARHYRSRDGYWGQGTQVTVSS | high polyreactivity
QVQLEDSGGGLDQAGVSLRLSCAASGSTFLLYAMVGYRQAPGKERELVAAISRSSTSTYYADSVKGRFTISRDNAKNTVYLQMNSLKPEDTAVYYCAAVVTVQYSQPYDHWGQGTQVTVSS | high polyreactivity
QVQLEDSGGGLVQAGGSLRLSCAASGFIFGSYTMGWYRQAPGKERELVAVITWSGSSTYYADSVKGRFTISRDNAKYPVYLQMNSLKPEDTAVYYCNAVKFGGYDYWGQGTQVTVSS | high polyreactivity
QVQLEDSGGGLVQAGGSLRLSCAASGFTFYSYAMGWYRQATGKERELVAAISWSGTRTYYADSVKGRFTISRDNAKNTVYLQMNSLKPEDTAVYYCAARGYRYGYGYWGQGTQVTVSS | high polyreactivity
QVQLEDSGGGLVQAGGSLRLSCAASGLIFLDYAMGCYRQAPGKERELVAAISRSGGRTYYADSVKGRFTISRDNAKNTVYLQMNIVKPEDTAVYYCNAYQSARKKATASTYDSWGQCTQVTVSS | high polyreactivity
QVQLEDSGGGLVQAGGSLRLSCAASGRTFNKYAMGWYRQAPGKERELVAAINTSGGSTYYADSVKGRFTISRDNAKNTVYLQMNSLKPEDTAVYYCAAQSRSVYGRSYGYWGQGTQVTVSS | high polyreactivity
QVQLEDSGGGLVQAGGSLRLSCAASGRTFTYYAMGWYRQAPGKERELVATISYSGGSTYYADSVKGRFTISRDNAKNTVYLQMNSLKPEDTAVYYCATSGSGPWWKLYYSGQGTQVTVSS | low polyreactivity
QVQLEDSGGGLVQAGGSLRLSCAASGSIIGSYAMGLYRQAPGKERELVAAISRRGGSTYYADSVKGRFTISRDNAKNTVYLQMNSLKPEDTAVYYCARRDYGVLNKGLGQEGDYWGQGTQVTVSS | low polyreactivity
